Measurements as given in patent US20050060761A1.

Biological target: TrkB receptor (endogenous, at mouse motor nerve terminals) (mouse) (UniProt P15209)
Test: cell-based or functional assay

Sequence of UniProt P15209 (P15209 32-821): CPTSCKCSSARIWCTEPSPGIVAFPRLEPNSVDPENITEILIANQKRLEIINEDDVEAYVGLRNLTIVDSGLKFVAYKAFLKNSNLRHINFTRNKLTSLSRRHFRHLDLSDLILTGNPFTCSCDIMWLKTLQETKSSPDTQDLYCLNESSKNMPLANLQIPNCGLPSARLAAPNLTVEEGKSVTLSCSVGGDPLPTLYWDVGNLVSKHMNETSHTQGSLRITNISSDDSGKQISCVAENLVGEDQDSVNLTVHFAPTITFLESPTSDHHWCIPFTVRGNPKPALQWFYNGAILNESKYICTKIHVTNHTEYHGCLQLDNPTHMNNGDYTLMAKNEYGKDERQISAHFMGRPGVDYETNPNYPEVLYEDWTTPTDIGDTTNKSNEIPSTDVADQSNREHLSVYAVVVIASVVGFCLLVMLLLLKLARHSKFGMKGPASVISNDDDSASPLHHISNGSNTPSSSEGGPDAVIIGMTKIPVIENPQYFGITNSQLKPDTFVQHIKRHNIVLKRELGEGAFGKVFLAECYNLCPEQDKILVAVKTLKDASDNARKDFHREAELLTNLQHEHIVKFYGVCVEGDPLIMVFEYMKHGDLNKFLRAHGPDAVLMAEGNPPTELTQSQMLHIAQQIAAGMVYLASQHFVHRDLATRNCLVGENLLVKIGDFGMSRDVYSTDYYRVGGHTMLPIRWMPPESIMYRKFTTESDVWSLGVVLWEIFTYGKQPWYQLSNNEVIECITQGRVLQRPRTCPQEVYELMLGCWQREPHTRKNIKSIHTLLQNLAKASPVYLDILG

| Substance | elevation in the level of GFP-TTC concentration at the NMJ (LAL), 100 ng BDNF [fold] | elevation in the level of GFP-TTC concentration at the NMJ (LAL), 250 ng BDNF [fold] | increase of GFP-TTC signal at the NMJ by BDNF after BoTx/A treatment [fold] | GFP-TTC localization at the NMJ, fold increase [fold] |
| --- | --- | --- | --- | --- |
| recombinant human Brain Derived Neurotrophic Factor (BDNF) (from UniProt P23560 129-247) (ligand) | 1.72 | 1.15 | 2.05 |  |
| recombinant human Neurotrophin 4 (NT-4) (from UniProt P34130 81-210) (ligand) |  |  |  | 1.54 |
